In publication doi:10.1101/2020.08.02.233536:

Legend:
[1] = target: His-tagged SARS-CoV RBD protein (binding studies) (SARS-CoV) (UniProt P59594); assay: BLI
[2] = target: His-tagged SARS-CoV-2 RBD protein (binding studies) (SARS-CoV-2) (UniProt P0DTC2); assay: BLI

## COVA1–16 Fab, His-tagged
[1]
  Kd: 405 nM
[2]
  Kd: 46 nM

## COVA1–16 IgG1 antibody
[1]
  Kd: 125 nM
[2]
  Kd: 0.2 nM
